Data taken from US11464867B2, “Multimeric elastin-like polypeptides” (University of Southern California, priority 2018, dated 2022).

Key:
[1] = Phase transition temperature by optical density (UV-Vis, 350 nm) versus temperature; assay type: physicochemical; conditions: 25 μM; Table 5
Procedure: The temperature with the maximum positive slope was defined as the phase transition temperature for each condition. (FIG. 2B) The concentration-temperature phase diagram was determined for both ELPs, and fit to the following equation: Tt=b−m Log10[CELP].
Both ELPs at different concentrations (5 μM to 100 μM) were subject to a precisely controlled temperature increase from 25 to 75° C. at a rate of 1° C./min. The Tt of ELPs is defined as the temperature at which the first derivative of the optical density with respect to the temperature reaches a maximum.

[2] = ATRA encapsulation in 4PA, two phase method, HPLC; assay type: physicochemical; conditions: theoretical maximum 4
From the text: FIG. 21: SDS PAGE was used to resolve the purified 4PA fusion protein. To formulate ATRA-loaded 4PA, a two phase encapsulation method was adopted. After removing undissolved drug, HPLC was used to quantify 4PA and ATRA concentrations. Encapsulation ratio, defined as CATRA/C4PA was 2.7, theoretical maximum being 4.

BT-474 orthotopic tumors = test: Orthotopic BT-474 tumors in nude mice; assay type: in vivo; conditions: 1 mg/kg every other day for 4 weeks
From the text: FIGS. 25A-25B: show results of administration of FAF formulations when tested for efficacy and safety in nude mice bearing orthotopic tumors of BT-474 cell line. Oral Eve at the same drug dose served as a clinically relevant control.
Accounting for nearly 40,000 deaths per year, breast cancer is the second deadliest cancer affecting American women. Everolimus (Eve), an analog of Rapamycin is approved to treat HR+/HER2− subtype in combination with exemestane. Currently administered as an oral formulation, Eve suffers from poor physico-chemical properties and toxicity issues like Rapamycin. Novel FAF formulations were tested for efficacy and safety in nude mice bearing orthotopic tumors of BT-474 cell line. Being a HR+ cell line, BT-474 represents nearly 80% of clinically diagnosed breast cancer. Oral Eve at the same drug dose served as a clinically relevant control. […] This is presumably a result of Eve's poor oral bioavailability.

[3] = test system: HR+/HER2− breast cancer patients; conditions: in combination with exemestane; cited from earlier work
male NOD mice = test: Lymphocytic infiltration of the lacrimal gland in male NOD mice (Sjögren's syndrome model); assay type: in vivo; conditions: SC 1.0 mg Rapa/kg every other day for 2 weeks
Procedure: FIGS. 23A-23C: FAF-Rapa reduces lymphocytic infiltration in the LG of male NOD mice, FIG. 23A: identity, purity and fluorescence of FAF, FAF-Rapa and rhodamine-labeled FAF-Rapa (Rho-FAF-Rapa) were analyzed by Comassie blue staining and fluorescence imaging of SDS-PAGE. FIG. 23B: One LG from each mouse was collected at the conclusion of the study. Sections from 25th, 50th and 75th percentile sections from each LG were quantified by a blinded observer to determine the average percentage area of infiltrate per gland. Glands from 4 treatment groups (n=15) were compared. Inflamed LG show areas of purple nuclear staining, which indicate foci of infiltrating lymphocytes (outlined in blue). Severe lymphocytic infiltration was reduced by FAF-Rapa (middle panel). Scale bar represents 200 μm. FIG. 23C: The percent area of infiltration was calculated using ImageJ (mean±SD). A Kruskal-Wallis non-parametric test was used to compare groups.
SS is a chronic autoimmune disease that affects about 4 million people in the US. Lymphocytic infiltration and inflammation in the exocrine glands, mainly lacrimal gland (LG) and salivary gland causes severe forms of dry eyes and dry mouth. […] Following this, the LG from all mice were sectioned, stained and lymphocytic infiltration was quantified.

MDA-MB-468 cell line = test: Cellular uptake of FAF; assay type: cell-based; conditions: concentrations up to 100 μM
MDA-MB-468 cells = test: Split luciferase reporter for cytosolic Rapa; assay type: cell-based
From the text: FIGS. 22A-22B: FAF delays the access of Rapa to the cytosol in a manner consistent with macropinocytosis. FIG. 22A: MDA-VB-468 cells were transfected with a split luciferase reporter that enables the specific detection of Rapa within the cytosol. […] Free Rapa luminescence kinetics were unaffected by amiloride. (Mean±95% CI, n=6).
To understand drug release, cells were engineered to express a luciferase reporter for cytosolic Rapamycin. […] This is evidence that FAF dominates the intracellular delivery of rapalogues.

4PA: 4 Pin1 domains linked by ELP A24, SEQ ID NO: 15
Transition temperature at 25 μM [1]: 52.8 °C
Encapsulation ratio, CATRA/C4PA [2]: 2.7

CO[C@H]1C[C@@H]2CC[C@@H](C)[C@@](O)(O2)C(=O)C(=O)N2CCCC[C@H]2C(=O)O[C@H]([C@H](C)C[C@@H]2CC[C@@H](OCCO)[C@H](OC)C2)CC(=O)[C@H](C)/C=C(\C)[C@@H](O)[C@@H](OC)C(=O)[C@H](C)C[C@H](C)/C=C/C=C/C=C/1C [Eve, Everolimus]
tumor growth compared to PBS treated mice (BT-474 orthotopic tumors): not statistically significant
patients with adverse events necessitating discontinuation of treatment [3]: 10 % of patients
patients with adverse events necessitating dose reduction [3]: 75 % of patients

CO[C@H]1C[C@@H]2CC[C@@H](C)[C@@](O)(O2)C(=O)C(=O)N2CCCC[C@H]2C(=O)O[C@H]([C@H](C)C[C@@H]2CC[C@@H](O)[C@H](OC)C2)CC(=O)[C@H](C)/C=C(\C)[C@@H](O)[C@@H](OC)C(=O)[C@H](C)C[C@H](C)/C=C/C=C/C=C/1C [Rapa, Rapamycin]
suppression of lymphocytic infiltration compared to vehicle (male NOD mice): 2.7 fold

FAF: FKBP fused to each terminus of ELP A192, SEQ ID NO: 25
saturation of cellular uptake (MDA-MB-468 cell line): no dose-dependent saturation
Transition temperature at 25 μM [1]: 55.1 °C
MAT (SC, Non-compartment): 9.6 h
elimination half-life (mouse, in vivo, iv): about 7 hrs
MRT (mouse, in vivo, sc): 20.3 h
Tmax (mouse, in vivo, sc): 12 h
delay of cytosolic access of Rapa versus free drug (MDA-MB-468 cells): about a half-hour
effect of amiloride on cytosolic detection of Rapa (MDA-MB-468 cells; macropinocytosis inhibitor amiloride added): completely suppressed
